The data set is described as follows: melting temperature; melt of duplexes. Particulars: sodium 0.0675 M; strand 1 µM.
For “CGACGTGCTACATGTGCTG+CAGCACATCGCGCACGTCG ((((((((...((((((((+))))))))...))))))))”, the Tm is 46.9 °C.

For “CGACGTGCGACATGTGCTG+CAGCACATGTTGCACGTCG ((((((((.((((((((((+)))))))))).))))))))”, the Tm amounted to 60.9 °C. The value for “CGACGTGCTGCATGTGCTG+CAGCACATGGAGCACGTCG (((((((((.(((((((((+))))))))).)))))))))” was 61.2 °C; that for “CGACGTGCTGCATGTGCTG+CAGCACATAATGCACGTCG ((((((((...((((((((+))))))))...))))))))” was 50.7 °C. Turning to “CGACGTGCGGTATGTGCTG+CAGCACATGTCGCACGTCG (((((((((..((((((((+))))))))..)))))))))”, the Tm is 57.1 °C.

On to “CGACGTGCATTATGTGCTG+CAGCACATGCTGCACGTCG (((((((((..((((((((+))))))))..)))))))))”, for which the Tm was 49 °C. Turning to “CGACGTGCTTCATGTGCTG+CAGCACATGATGCACGTCG ((((((((.((((((((((+)))))))))).))))))))”, the Tm turned out to be 58.8 °C. Turning to “CGACGTGCCTAATGTGCTG+CAGCACATATAGCACGTCG ((((((((...((((((((+))))))))...))))))))”, the Tm came to 49.6 °C. For “CGACGTGCCATATGTGCTG+CAGCACATTGGGCACGTCG (((((((((..((((((((+))))))))..)))))))))” the value was 55.6 °C.

Take “CGACGTGCAGCATGTGCTG+CAGCACATCTGGCACGTCG ((((((((...((((((((+))))))))...))))))))”: the Tm came to 49.5 °C.

For the substance “CGACGTGCGAAATGTGCTG+CAGCACATTGCGCACGTCG (((((((((.(((((((((+))))))))).)))))))))”, the Tm came out at 60.2 °C.

Regarding “CGACGTGCGCTATGTGCTG+CAGCACATCGAGCACGTCG ((((((((.(.((((((((+)))))))).).))))))))”, the Tm was 53.1 °C. “CGACGTGCCCTATGTGCTG+CAGCACATCTGGCACGTCG (((((((((..((((((((+))))))))..)))))))))”: the Tm turned out to be 53.2 °C. In the case of “CGACGTGCCGCATGTGCTG+CAGCACATGTTGCACGTCG ((((((((..(((((((((+)))))))))..))))))))”, the Tm came to 54.5 °C.

As for “CGACGTGCCCGATGTGCTG+CAGCACATACAGCACGTCG ((((((((...((((((((+))))))))...))))))))”, the Tm came out at 49.1 °C. For the substance “CGACGTGCCAAATGTGCTG+CAGCACATTCGGCACGTCG (((((((((.(((((((((+))))))))).)))))))))”, the Tm was determined as 57.5 °C.

Take “CGACGTGCGTTATGTGCTG+CAGCACATCCCGCACGTCG (((((((((..((((((((+))))))))..)))))))))”: the Tm came to 51.7 °C. In the case of “CGACGTGCGGTATGTGCTG+CAGCACATGGTGCACGTCG ((((((((...((((((((+))))))))...))))))))”, the Tm was found to be 51.5 °C.

Consider “CGACGTGCATGATGTGCTG+CAGCACATTATGCACGTCG ((((((((((.((((((((+)))))))).))))))))))”, for which the Tm amounted to 57.3 °C. The value for “CGACGTGCTATATGTGCTG+CAGCACATAGGGCACGTCG ((((((((..(((((((((+)))))))))..))))))))” was 53.2 °C; that for “CGACGTGCTAAATGTGCTG+CAGCACATCACGCACGTCG ((((((((...((((((((+))))))))...))))))))” was 49 °C. For “CGACGTGCGTGATGTGCTG+CAGCACATCTGGCACGTCG ((((((((..(((((((((+)))))))))..))))))))”, the Tm is 55.7 °C. On to “CGACGTGCCAAATGTGCTG+CAGCACATATTGCACGTCG ((((((((.(.((((((((+)))))))).).))))))))”, for which the Tm amounted to 48.9 °C. For “CGACGTGCAGCATGTGCTG+CAGCACATTGCGCACGTCG ((((((((...((((((((+))))))))...))))))))” the value was 52.5 °C; for “CGACGTGCACAATGTGCTG+CAGCACATTTTGCACGTCG (((((((((.(((((((((+))))))))).)))))))))”, 54 °C; for “CGACGTGCTTAATGTGCTG+CAGCACATGTAGCACGTCG (((((((((..((((((((+))))))))..)))))))))”, 53.4 °C. With “CGACGTGCTATATGTGCTG+CAGCACATGAAGCACGTCG (((((((((..((((((((+))))))))..)))))))))”, the melting temperature (Tm) is 53.2 °C. Turning to “CGACGTGCGTTATGTGCTG+CAGCACATCCAGCACGTCG ((((((((...((((((((+))))))))...))))))))”, the Tm stood at 49.6 °C.

Turning to “CGACGTGCCGAATGTGCTG+CAGCACATAGAGCACGTCG ((((((((...((((((((+))))))))...))))))))”, the melting temperature (Tm) was 49.9 °C. Turning to “CGACGTGCTTCATGTGCTG+CAGCACATCATGCACGTCG ((((((((.(.((((((((+)))))))).).))))))))”, the Tm amounted to 49.2 °C.

On to “CGACGTGCCTGATGTGCTG+CAGCACATCAAGCACGTCG ((((((((.((((((((((+)))))))))).))))))))”, for which the Tm amounted to 56.6 °C. On to “CGACGTGCAAAATGTGCTG+CAGCACATTGGGCACGTCG ((((((((..(((((((((+)))))))))..))))))))”, for which the Tm was determined as 54 °C. Turning to “CGACGTGCAATATGTGCTG+CAGCACATGTAGCACGTCG ((((((((.(.((((((((+)))))))).).))))))))”, the Tm was 52 °C. With “CGACGTGCCCCATGTGCTG+CAGCACATTGGGCACGTCG ((((((((((.((((((((+)))))))).))))))))))”, the Tm came out at 58.5 °C.

As for “CGACGTGCATGATGTGCTG+CAGCACATGGAGCACGTCG ((((((((...((((((((+))))))))...))))))))”, the Tm is 50.1 °C.

As to “CGACGTGCGGGATGTGCTG+CAGCACATCATGCACGTCG ((((((((..(((((((((+)))))))))..))))))))”, the Tm came to 57 °C. With “CGACGTGCCATATGTGCTG+CAGCACATGTCGCACGTCG ((((((((.(.((((((((+)))))))).).))))))))”, the Tm was determined as 50.5 °C. The value for “CGACGTGCGCTATGTGCTG+CAGCACATTCTGCACGTCG ((((((((...((((((((+))))))))...))))))))” was 48.6 °C; that for “CGACGTGCTTCATGTGCTG+CAGCACATGTAGCACGTCG (((((((((.(((((((((+))))))))).)))))))))” was 57 °C; that for “CGACGTGCCTGATGTGCTG+CAGCACATGTAGCACGTCG ((((((((...((((((((+))))))))...))))))))” was 49.3 °C. Take “CGACGTGCCGTATGTGCTG+CAGCACATCTGGCACGTCG (((((((((..((((((((+))))))))..)))))))))”: the Tm turned out to be 55.3 °C. For “CGACGTGCGCGATGTGCTG+CAGCACATTTTGCACGTCG ((((((((...((((((((+))))))))...))))))))”, the Tm is 48.9 °C. The value for “CGACGTGCGCTATGTGCTG+CAGCACATAAGGCACGTCG ((((((((..(((((((((+)))))))))..))))))))” was 51.6 °C; that for “CGACGTGCGAGATGTGCTG+CAGCACATCCGGCACGTCG ((((((((..(((((((((+)))))))))..))))))))” was 55.7 °C; that for “CGACGTGCGTAATGTGCTG+CAGCACATACCGCACGTCG (((((((((..((((((((+))))))))..)))))))))” was 54.2 °C. For “CGACGTGCGGCATGTGCTG+CAGCACATTTCGCACGTCG (((((((((..((((((((+))))))))..)))))))))” the value was 53.4 °C; for “CGACGTGCCCTATGTGCTG+CAGCACATTCGGCACGTCG (((((((((..((((((((+))))))))..)))))))))”, 52.9 °C.

As to “CGACGTGCACCATGTGCTG+CAGCACATTGCGCACGTCG ((((((((.(.((((((((+)))))))).).))))))))”, the Tm was 46.9 °C. As for “CGACGTGCCGAATGTGCTG+CAGCACATTGTGCACGTCG ((((((((..(((((((((+)))))))))..))))))))”, the Tm came out at 50.1 °C. Turning to “CGACGTGCTTGATGTGCTG+CAGCACATCGAGCACGTCG (((((((((.(((((((((+))))))))).)))))))))”, the Tm was found to be 60.6 °C. As for “CGACGTGCAGTATGTGCTG+CAGCACATCATGCACGTCG (((((((((..((((((((+))))))))..)))))))))”, the Tm turned out to be 51.4 °C. For the substance “CGACGTGCAGTATGTGCTG+CAGCACATTGGGCACGTCG ((((((((...((((((((+))))))))...))))))))”, the Tm is 48.8 °C. On to “CGACGTGCTAGATGTGCTG+CAGCACATTTCGCACGTCG ((((((((.(.((((((((+)))))))).).))))))))”, for which the Tm was determined as 50.1 °C.

On to “CGACGTGCCTAATGTGCTG+CAGCACATTTAGCACGTCG ((((((((..(((((((((+)))))))))..))))))))”, for which the Tm came to 51.5 °C. Regarding “CGACGTGCCCCATGTGCTG+CAGCACATACCGCACGTCG ((((((((...((((((((+))))))))...))))))))”, the Tm came out at 45.8 °C.

In the case of “CGACGTGCGACATGTGCTG+CAGCACATACGGCACGTCG ((((((((...((((((((+))))))))...))))))))”, the Tm was 48.8 °C. “CGACGTGCTCCATGTGCTG+CAGCACATATCGCACGTCG ((((((((...((((((((+))))))))...))))))))”: the Tm turned out to be 46.4 °C. In the case of “CGACGTGCCACATGTGCTG+CAGCACATTCGGCACGTCG (((((((((..((((((((+))))))))..)))))))))”, the Tm turned out to be 53.4 °C. For “CGACGTGCAAAATGTGCTG+CAGCACATAGAGCACGTCG ((((((((...((((((((+))))))))...))))))))”, the midpoint of thermal melting (Tm) was 48.9 °C.

With “CGACGTGCCGTATGTGCTG+CAGCACATGGCGCACGTCG ((((((((...((((((((+))))))))...))))))))”, the Tm stood at 50.3 °C.

Turning to “CGACGTGCAGAATGTGCTG+CAGCACATTTAGCACGTCG ((((((((..(((((((((+)))))))))..))))))))”, the Tm was determined as 53.3 °C. For “CGACGTGCCATATGTGCTG+CAGCACATCGAGCACGTCG ((((((((...((((((((+))))))))...))))))))” the value was 49.8 °C; for “CGACGTGCATTATGTGCTG+CAGCACATGGCGCACGTCG ((((((((...((((((((+))))))))...))))))))”, 48.4 °C; for “CGACGTGCCGGATGTGCTG+CAGCACATGACGCACGTCG ((((((((...((((((((+))))))))...))))))))”, 46.3 °C. In the case of “CGACGTGCTCAATGTGCTG+CAGCACATGTTGCACGTCG ((((((((...((((((((+))))))))...))))))))”, the melting temperature (Tm) was 50.1 °C.

For “CGACGTGCTAGATGTGCTG+CAGCACATCGAGCACGTCG (((((((((.(((((((((+))))))))).)))))))))”, the Tm came to 59.7 °C.
